Values of other authors, collected in PMC3490216.

Assays:
VPAC1 receptor = VPAC1 receptor (UniProt P32241)
VPAC2 receptor = VPAC2 receptor (UniProt P41587)
Chain of UniProt P41587 (P41587 24-438): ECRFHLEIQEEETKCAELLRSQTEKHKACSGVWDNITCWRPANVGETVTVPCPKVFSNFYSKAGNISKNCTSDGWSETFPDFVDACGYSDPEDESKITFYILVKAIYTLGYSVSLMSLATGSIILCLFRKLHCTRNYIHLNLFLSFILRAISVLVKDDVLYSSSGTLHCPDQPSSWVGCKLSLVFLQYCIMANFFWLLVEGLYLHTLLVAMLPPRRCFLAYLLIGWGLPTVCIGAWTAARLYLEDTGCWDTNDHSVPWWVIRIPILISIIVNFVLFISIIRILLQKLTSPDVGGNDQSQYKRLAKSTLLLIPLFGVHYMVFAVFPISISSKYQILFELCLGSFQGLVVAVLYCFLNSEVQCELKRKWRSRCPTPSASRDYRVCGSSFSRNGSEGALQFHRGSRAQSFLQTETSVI

Chain of UniProt P32241 (P32241 31-457): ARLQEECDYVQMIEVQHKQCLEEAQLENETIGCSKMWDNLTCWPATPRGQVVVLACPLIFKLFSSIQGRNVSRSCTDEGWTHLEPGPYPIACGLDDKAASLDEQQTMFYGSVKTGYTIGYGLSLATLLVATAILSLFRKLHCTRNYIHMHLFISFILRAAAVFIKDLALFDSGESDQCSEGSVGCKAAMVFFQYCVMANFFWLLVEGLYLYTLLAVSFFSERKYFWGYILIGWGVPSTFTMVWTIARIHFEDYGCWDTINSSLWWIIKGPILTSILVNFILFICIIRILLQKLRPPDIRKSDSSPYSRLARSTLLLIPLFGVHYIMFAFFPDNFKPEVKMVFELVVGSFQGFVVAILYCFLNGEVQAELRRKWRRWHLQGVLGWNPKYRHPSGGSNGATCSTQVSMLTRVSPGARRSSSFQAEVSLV

## VIP (from UniProt P01282)
VPAC1 receptor
  Kd: 3 nM
VPAC2 receptor
  Kd: 3 nM
